Data: patent US20160024210A1 (AstraZeneca / MedImmune, published 2016)

What was measured:
[1] = biological target: T1, human H7CR (B7-H7 counter-receptor) (human, UniProt Q96BF3 23-282); experiment: binding to human H7CR as endogenously expressed on the surface of a cell
T1 construct: Used for H7CR on CHO.hH7CR transfectants, human T cells and tonsil tissue; also called B7-H7CR; CD28H
T1 sequence: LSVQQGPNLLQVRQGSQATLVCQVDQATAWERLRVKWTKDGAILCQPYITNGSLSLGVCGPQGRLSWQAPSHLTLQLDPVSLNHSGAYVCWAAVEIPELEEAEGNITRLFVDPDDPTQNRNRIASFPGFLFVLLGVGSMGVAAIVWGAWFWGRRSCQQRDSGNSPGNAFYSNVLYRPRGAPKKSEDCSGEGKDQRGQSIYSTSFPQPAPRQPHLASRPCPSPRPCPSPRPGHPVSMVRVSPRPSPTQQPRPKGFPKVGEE

[2] = biological target: T2, H7CR-GFP fusion protein on transfected CHO cells (Homo sapiens (Human), UniProt Q96BF3 23-282); experiment: flow cytometry, 5 µg/ml variant on H7CR-GFP transfected CHO cells, anti-hIg PE secondary antibody [row HC1-2, column LC1-2]
T2 construct: not shown: GFP part
T2 sequence: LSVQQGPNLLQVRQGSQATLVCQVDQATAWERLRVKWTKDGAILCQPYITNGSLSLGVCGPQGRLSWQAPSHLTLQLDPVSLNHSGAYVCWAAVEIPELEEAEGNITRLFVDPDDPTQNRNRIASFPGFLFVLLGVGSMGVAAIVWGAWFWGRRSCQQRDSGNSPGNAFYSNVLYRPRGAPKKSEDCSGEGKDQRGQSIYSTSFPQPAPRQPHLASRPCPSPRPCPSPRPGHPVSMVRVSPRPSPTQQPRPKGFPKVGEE
Description: (§1) 5 μg/ml antibodies from thirty-six variants were incubated with H7CR-GFP fusion protein transfected CHO cells for 30 min at room temperature. Cells were then washed twice with 2 ml flow cytometry buffer, and resuspended in 100 μl flow cytometry buffer. 1 μl anti-hIg PE secondary antibody (Biolegend) was added and incubated with the cells for 15 mins Samples were then washed and resuspended in 100 μl flow cytometry buffer. Flow Cytometry data was acquired using BD Canto (BD Biosciences) in plate format and analyzed by FlowJo software.

[3] = biological target: T2, H7CR-GFP fusion protein on transfected …; experiment: flow cytometry, 5 µg/ml variant on H7CR-GFP transfected CHO cells, anti-hIg PE secondary antibody [row HC1-2, column LC2-2]
Description: as §1

[4] = biological target: T2, H7CR-GFP fusion protein on transfected …; experiment: flow cytometry, 5 µg/ml variant on H7CR-GFP transfected CHO cells, anti-hIg PE secondary antibody [row HC1-2, column LC1-3]
Description: as §1

[5] = biological target: T2, H7CR-GFP fusion protein on transfected …; experiment: flow cytometry, 5 µg/ml variant on H7CR-GFP transfected CHO cells, anti-hIg PE secondary antibody [row HC1-1, column LC1-2]
Description: as §1

[6] = biological target: T2, H7CR-GFP fusion protein on transfected …; experiment: flow cytometry, 5 µg/ml variant on H7CR-GFP transfected CHO cells, anti-hIg PE secondary antibody [row HC1-1, column LC1-3]
Description: as §1

[7] = biological target: T2, H7CR-GFP fusion protein on transfected …; experiment: flow cytometry, 5 µg/ml variant on H7CR-GFP transfected CHO cells, anti-hIg PE secondary antibody [row HC1-1, column LC2-2]
Description: as §1

[8] = biological target: T2, H7CR-GFP fusion protein on transfected …; experiment: flow cytometry, 5 µg/ml variant on H7CR-GFP transfected CHO cells, anti-hIg PE secondary antibody [row HC1-1, column LC2-3]
Description: as §1

[9] = biological target: T2, H7CR-GFP fusion protein on transfected …; experiment: flow cytometry, 5 µg/ml variant on H7CR-GFP transfected CHO cells, anti-hIg PE secondary antibody [row HC1-2, column LC2-1]
Description: as §1

[10] = biological target: T2, H7CR-GFP fusion protein on transfected …; experiment: flow cytometry, 5 µg/ml variant on H7CR-GFP transfected CHO cells, anti-hIg PE secondary antibody [row HC1-2, column LC1-1]
Description: as §1

[11] = biological target: T2, H7CR-GFP fusion protein on transfected …; experiment: flow cytometry, 5 µg/ml variant on H7CR-GFP transfected CHO cells, anti-hIg PE secondary antibody [row HC1-1, column LC2-1]
Description: as §1

[12] = biological target: T2, H7CR-GFP fusion protein on transfected …; experiment: flow cytometry, 5 µg/ml variant on H7CR-GFP transfected CHO cells, anti-hIg PE secondary antibody [row HC1-1, column LC1-1]
Description: as §1

[13] = biological target: T1, human H7CR (B7-H7 counter-receptor); experiment: flow cytometry, 5 µg/ml mAb on H7CR CHO stable transfectants [C]
Description: 5 μg/ml H7CR 1.3, 4.5 and 7.8 mAbs was used to stain H7CR stable transfectants to show binding specificity (FIG. 4). 10 μg/ml B7-H7mIg fusion protein was also used to stain H7CR CHO transfectants. H7CR mAbs were added to the system to evaluate the blocking capability of H7CR mAbs on B7-H7-H7CR interactions (FIG. 5). Immunohistochemistry staining for H7CR on human tonsil paraffin-embedded section was performed with 4.5 antibody at a concentration of 5 μg/ml using a standard protocol (FIG. 6). For cell surface staining and analysis by flow cytometry, cells were incubated with the indicated mAb for 30 min at 4° C., washed with buffer and analyzed. Expression of H7CR on human and mouse PBMC was evaluated by lineage marker and 1.3 antibody staining (FIG. 7-11). Expression of B7-H7 on activated monocyte-derived DC was evaluated by anti-B7-H7 antibody staining (FIG. 12).

B1: 4.5 humanized variant 8 (HC1-2 / LC1-2) (antibody, V domains shown)
VH: QVQLQESGPGLVKPSQTLSLTCTVSGFSITTGGYYWNWIRQHPGKKLEWIGYIYTSGRTSYNPSLKSRVTISRDTSKNQFSLKLSSVTAADTAVYYCADMADKGGWFAYWGQGTLVTVSS
VL: DIVMTQSPDSLAVSLGERATINCKSSQSLFSSNTKRNYLNWYQQKPGQPPKLLIYHASTRLSGVPDRFSGSGSGTDFTLTISSLQAEDVADYFCQQHYETPLTFGDGTRLEIK
notes: Variable domains only; detected with anti-hIg secondary; also called VH1B / VL1B
B1: binds [1]; binds [2].

B2: 4.5 humanized variant 11 (HC1-2 / LC2-2) (antibody, V domains shown)
VH: QVQLQESGPGLVKPSQTLSLTCTVSGFSITTGGYYWNWIRQHPGKKLEWIGYIYTSGRTSYNPSLKSRVTISRDTSKNQFSLKLSSVTAADTAVYYCADMADKGGWFAYWGQGTLVTVSS
VL: DIVMTQTPLSLPVTPGEPASISCRSSQSLFSSNTKRNYLNWYLQKPGQSPKLLIYHASTRLSGVPDRFSGSGSGTDFTLKISRVEAEDVGDYFCQQHYETPLTFGDGTRLEIK
notes: Variable domains only; detected with anti-hIg secondary; also called VH1B / VL2B
B2: binds [1]; binds [3].

B3: 4.5 humanized variant 9 (HC1-2 / LC1-3) (antibody, V domains shown)
VH: QVQLQESGPGLVKPSQTLSLTCTVSGFSITTGGYYWNWIRQHPGKKLEWIGYIYTSGRTSYNPSLKSRVTISRDTSKNQFSLKLSSVTAADTAVYYCADMADKGGWFAYWGQGTLVTVSS
VL: DIVMTQSPDSLAVSLGERATINCLSSQSLFSSNTKRNYLNWYQQKPGQSPKLLIYHASTRLSGVPDRFSGSGSGTDFTLTISSLQAEDVADYFCQQHYETPLTFGDGTRLEIK
notes: Variable domains only; detected with anti-hIg secondary; also called VH1B / VL1C
B3: binds [1]; binds [4].

B4: 4.5 humanized variant 2 (HC1-1 / LC1-2) (antibody, V domains shown)
VH: QVQLQESGPGLVKPSQTLSLTCTVSGFSITTGGYYWSWIRQHPGKGLEWIGYIYTSGRTYYNPSLKSRVTISVDTSKNQFSLKLSSVTAADTAVYYCADMADKGGWFAYWGQGTLVTVSS
VL: DIVMTQSPDSLAVSLGERATINCKSSQSLFSSNTKRNYLNWYQQKPGQPPKLLIYHASTRLSGVPDRFSGSGSGTDFTLTISSLQAEDVADYFCQQHYETPLTFGDGTRLEIK
notes: Variable domains only; detected with anti-hIg secondary; also called VH1A / VL1B
B4: binds [1]; binds [5].

B5: 4.5 humanized variant 3 (HC1-1 / LC1-3) (antibody, V domains shown)
VH: QVQLQESGPGLVKPSQTLSLTCTVSGFSITTGGYYWSWIRQHPGKGLEWIGYIYTSGRTYYNPSLKSRVTISVDTSKNQFSLKLSSVTAADTAVYYCADMADKGGWFAYWGQGTLVTVSS
VL: DIVMTQSPDSLAVSLGERATINCLSSQSLFSSNTKRNYLNWYQQKPGQSPKLLIYHASTRLSGVPDRFSGSGSGTDFTLTISSLQAEDVADYFCQQHYETPLTFGDGTRLEIK
notes: Variable domains only; detected with anti-hIg secondary; also called VH1A / VL1C
B5: binds [1]; binds [6].

B6: 4.5 humanized variant 5 (HC1-1 / LC2-2) (antibody, V domains shown)
VH: QVQLQESGPGLVKPSQTLSLTCTVSGFSITTGGYYWSWIRQHPGKGLEWIGYIYTSGRTYYNPSLKSRVTISVDTSKNQFSLKLSSVTAADTAVYYCADMADKGGWFAYWGQGTLVTVSS
VL: DIVMTQTPLSLPVTPGEPASISCRSSQSLFSSNTKRNYLNWYLQKPGQSPKLLIYHASTRLSGVPDRFSGSGSGTDFTLKISRVEAEDVGDYFCQQHYETPLTFGDGTRLEIK
notes: Variable domains only; detected with anti-hIg secondary; also called VH1A / VL2B
B6: binds [1]; binds [7].

B7: 4.5 humanized variant 6 (HC1-1 / LC2-3) (antibody, V domains shown)
VH: QVQLQESGPGLVKPSQTLSLTCTVSGFSITTGGYYWSWIRQHPGKGLEWIGYIYTSGRTYYNPSLKSRVTISVDTSKNQFSLKLSSVTAADTAVYYCADMADKGGWFAYWGQGTLVTVSS
VL: DIVMTQTPSSLPVTPGEPASISCLSSQSLFSSNTKRNYLNWYLQKPGQSPKLLIYHASTRLSGVPDRFSGSGSGTDFTLKISRVEAEDVGDYFCQQHYETPLTFGDGTRLEIK
notes: Variable domains only; detected with anti-hIg secondary; also called VH1A / VL2C
B7: binds [1]; binds [8].

B8: 4.5 humanized variant 10 (HC1-2 / LC2-1) (antibody, V domains shown)
VH: QVQLQESGPGLVKPSQTLSLTCTVSGFSITTGGYYWNWIRQHPGKKLEWIGYIYTSGRTSYNPSLKSRVTISRDTSKNQFSLKLSSVTAADTAVYYCADMADKGGWFAYWGQGTLVTVSS
VL: DIVMTQTPLSLPVTPGEPASISCRSSQSLFSSNTKRNYLDWYLQKPGQSPQLLIYHASYRASGVPDRFSGSGSGTDFTLKISRVEAEDVGVYYCQQHYETPLTFGQGTRLEIK
notes: Variable domains only; detected with anti-hIg secondary; also called VH1B / VL2A
B8: binds [1]; binds [9].

B9: 4.5 humanized variant 7 (HC1-2 / LC1-1) (antibody, V domains shown)
VH: QVQLQESGPGLVKPSQTLSLTCTVSGFSITTGGYYWNWIRQHPGKKLEWIGYIYTSGRTSYNPSLKSRVTISRDTSKNQFSLKLSSVTAADTAVYYCADMADKGGWFAYWGQGTLVTVSS
VL: DIVMTQSPDSLAVSLGERATINCKSSQSLFSSNTKRNYLAWYQQKPGQPPKLLIYHASTRESGVPDRFSGSGSGTDFTLTISSLQAEDVAVYYCQQHYETPLTFGQGTRLEIK
notes: Variable domains only; detected with anti-hIg secondary; also called VH1B / VL1A
B9: binds [1]; binds [10].

B10: 4.5 humanized variant 4 (HC1-1 / LC2-1) (antibody, V domains shown)
VH: QVQLQESGPGLVKPSQTLSLTCTVSGFSITTGGYYWSWIRQHPGKGLEWIGYIYTSGRTYYNPSLKSRVTISVDTSKNQFSLKLSSVTAADTAVYYCADMADKGGWFAYWGQGTLVTVSS
VL: DIVMTQTPLSLPVTPGEPASISCRSSQSLFSSNTKRNYLDWYLQKPGQSPQLLIYHASYRASGVPDRFSGSGSGTDFTLKISRVEAEDVGVYYCQQHYETPLTFGQGTRLEIK
notes: Variable domains only; detected with anti-hIg secondary; also called VH1A / VL2A
B10: binds [1]; binds [11].

B11: 4.5 humanized variant 1 (HC1-1 / LC1-1) (antibody, V domains shown)
VH: QVQLQESGPGLVKPSQTLSLTCTVSGFSITTGGYYWSWIRQHPGKGLEWIGYIYTSGRTYYNPSLKSRVTISVDTSKNQFSLKLSSVTAADTAVYYCADMADKGGWFAYWGQGTLVTVSS
VL: DIVMTQSPDSLAVSLGERATINCKSSQSLFSSNTKRNYLAWYQQKPGQPPKLLIYHASTRESGVPDRFSGSGSGTDFTLTISSLQAEDVAVYYCQQHYETPLTFGQGTRLEIK
notes: Variable domains only; detected with anti-hIg secondary; also called VH1A / VL1A
B11: binds [1]; binds [12].

B12: hamster anti-human H7CR antibody clone 7.8 (antibody, V domains shown)
VH: QIQLQESGPGLVKPSQSLSLTCSVTGFSITTGGYYWNWIRQFPGKKLEWMGYIYSSGRTSYNPSLKSRISITRDTSKNQFFLQLNSVTTEDTATYYCADMADKGGWFDYWGQGTLVTVSS
VL: DIVMTQSPSSLTVSAGEKVTISCLSSQSLFSSNTNRNYLSWYLQRPGQSPKLLIYHASTRLTGVPGRFIGSGSGTDFTLTVSTVQAGDLGDYFCQQHYVTPLTFGDGTRLEIK
notes: Hamster monoclonal antibody; also called H7CR7.8
B12: binds [13].
